Values quoted from earlier work, collected in article PMC4385930.
pKd: −log10 of the molar value.

Assays:
Bax BH3 (Homo sapiens) = Bax BH3 (Homo sapiens) (UniProt Q07812)
Bim BH3 (Homo sapiens) = Bim BH3 (Homo sapiens) (UniProt O43521)
Bak BH3 (Homo sapiens) = Bak BH3 (Homo sapiens) (UniProt Q16611)

For F1L (from UniProt P24356), the pKd (Bax BH3 (Homo sapiens)) is listed as 5.70, the pKd (Bim BH3 (Homo sapiens)) is listed as 6.70 and the pKd (Bak BH3 (Homo sapiens)) is listed as 5.37.
